Data from the supplement of paper PMC10126150.
± gives the standard deviation of the averaged measurements.

Each sequence was assayed on ATP (assay: switch fluorescence ratio, 500 uM ATP over buffer (Cy3 cluster intensity, sum of 5 cycles each) (fold (ratio)); higher = stronger signal-on switching upon ATP binding; sequences stand for … in TCGTCGGCAGCGTCAGATGTGTATAAGAGACAGTTTTTTTTTTTTTTTTTTTTTTTTT…TC). Conditions: aptamer strand: ATP DNA aptamer (quencher-CACCTGGGGGAGTATTGCGGAGGAAGG + anchor), 100 nM annealed; ATP concentration: 500 uM.
In short: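 Five buffer/ATP imaging cycles were run on Cy3-labelled switching-strand clusters on a modified Illumina MiSeq flow-cell, with NaOH stripping and re-annealing between cycles. In each cycle, clusters annealed to 100 nM quencher-labelled ATP aptamer were imaged in selection buffer, then after 15 min with 500 uM ATP at 22 °C. Per cluster, the fluorescence ratio is summed target-cycle over summed buffer-cycle Cy3 intensity, averaged per switch-domain sequence. Only clusters within 100-1000 RFU were kept.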
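Also: ATP exposure 15 min at 22 °C before imaging.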

Sequence | switch fluorescence ratio
GCAAAAATGT | 1 ± 0.029
GCAAAAGGGG | 0.977 ± 0.027
GCAAAGAGGG | 1.04 ± 0.012
GCAAAGTCTG | 0.984 ± 0.046
GCAAATAAGT | 1.02 ± 0.038
GCAAATATTG | 1.01 ± 0.018
GCAAGACAAG | 1.05 ± 0.036
GCAAGATTTC | 1.04 ± 0.013
GCAAGGGGTG | 1.1 ± 0.065
GCAAGTTCAA | 1.01 ± 0.031
GCAATAATTT | 2.83 ± 0.52
GCAATAGACT | 1.51 ± 0.04
GCAATATGGG | 1.84 ± 0.2
GCAATCAATA | 1.02 ± 0.015
GCAATCAGAA | 1.04 ± 0.035
GCAATCGAGT | 1.6 ± 0.04
GCAATCTGGT | 1.11 ± 0.026
GCAATTCCCG | 2.17 ± 0.049
GCACCAAAAG | 0.973 ± 0.028
GCACCAAGAA | 1.03 ± 0.014
GCACGCGGCT | 1.02 ± 0.019
GCACGGGCAT | 1.01 ± 0.035
GCACGGGGAT | 1.02 ± 0.033
GCACGTCGAA | 1.08 ± 0.032
GCACTAGGGG | 1.09 ± 0.015

Sequence | switch fluorescence ratio
GCACTATAGG | 0.999 ± 0.011
GCACTTTTTG | 0.99 ± 0.049
GCAGAAGTAC | 2.37 ± 0.075
GCAGAGGAAC | 1.03 ± 0.012
GCAGAGTGGA | 0.9976 ± 0.003
GCAGATCGGT | 0.967 ± 0.019
GCAGATCGTG | 1.02 ± 0.026
GCAGATTACG | 1.01 ± 0.058
GCAGCAAGCG | 1.64 ± 0.028
GCAGCAGACG | 1.2 ± 0.076
GCAGCAGCTT | 1.01 ± 0.039
GCAGCCAAGC | 1.14 ± 0.028
GCAGCTAGTA | 1.044 ± 0.0045
GCAGCTGGTA | 1.05 ± 0.024
GCAGCTGTAT | 1.08 ± 0.014
GCAGGAATGT | 1.0036 ± 0.00065
GCAGGAGCGG | 0.998 ± 0.0094
GCAGGCGGGC | 0.991 ± 0.014
GCAGGCGTCA | 1.04 ± 0.015
GCAGGCGTTG | 0.995 ± 0.013
GCAGGGAGTT | 0.966 ± 0.029
GCAGGGGGAG | 1.02 ± 0.0081
GCAGGGGTTA | 1.28 ± 0.43
GCAGGGGTTG | 1.03 ± 0.071
GCAGGTATTG | 1.02 ± 0.012

Sequence | switch fluorescence ratio
GCAGGTGTGC | 1.13 ± 0.082
GCAGTACGGC | 1.05 ± 0.033
GCAGTCGCAA | 1.1 ± 0.043
GCAGTCTGTG | 0.98 ± 0.03
GCAGTGGGGT | 1.01 ± 0.022
GCAGTGGGTC | 0.995 ± 0.0057
GCAGTTATTT | 0.966 ± 0.026
GCAGTTGGGG | 0.998 ± 0.032
GCATAAATAG | 1.02 ± 0.018
GCATAACATT | 1.01 ± 0.014
GCATAAGAAA | 1.03 ± 0.018
GCATAAGCTC | 1.06 ± 0.062
GCATAAGGGC | 0.959 ± 0.033
GCATATCTGT | 1.0296 ± 0.00023
GCATCAGGAG | 1.05 ± 0.021
GCATCCGGGA | 0.956 ± 0.039
GCATGAAGGT | 1 ± 0.014
GCATGAGCGG | 1.01 ± 0.013
GCATGAGGAT | 1.01 ± 0.06
GCATGAGGGA | 0.993 ± 0.019
GCATGATCAA | 0.997 ± 0.031
GCATGATGGG | 0.986 ± 0.043
GCATGCGCTG | 0.982 ± 0.015
GCATGCTGGT | 1.01 ± 0.024
GCATGGCACC | 1.01 ± 0.025

Sequence | switch fluorescence ratio
GCATGGGGAC | 1.05 ± 0.081
GCATGGTTGG | 0.976 ± 0.034
GCATGGTTTT | 0.975 ± 0.029
GCATTAATG | 1.03 ± 0.021
GCATTAGCTT | 1.007 ± 0.01
GCATTAGGGG | 1.01 ± 0.016
GCATTAGGTA | 0.984 ± 0.024
GCATTGATGT | 1.02 ± 0.017
GCATTGGTTC | 1.02 ± 0.042
GCATTGTACG | 0.991 ± 0.03
GCATTGTGCC | 1.02 ± 0.022
GCATTTGAAG | 0.953 ± 0.05
GCATTTGGGG | 0.9686 ± 0.0032
GCATTTGTAC | 1.266 ± 0.0026
GCATTTTTAT | 1.02 ± 0.037
GCCAAGTTCG | 0.9787 ± 0.0072
GCCACATTCA | 0.991 ± 0.017
GCCACGGCGA | 1.02 ± 0.021
GCCAGATGCG | 1.05 ± 0.064
GCCAGATTAA | 0.976 ± 0.014
GCCAGGCACT | 1.005 ± 0.0077
GCCAGGGGGA | 1.09 ± 0.12
GCCAGTAAGT | 0.994 ± 0.039
GCCAGTAATA | 1.1 ± 0.034
GCCAGTTGTC | 0.998 ± 0.041
